Binding signal (fold decrease in affinity vs HO(10)) data for five substances are collected here from paper PMC517709.

For the data set, the system named is a1;alpha2 (Saccharomyces cerevisiae;Saccharomyces cerevisiae). Nature of the data set: EMSA. Conditions: 1.4 uM a1 constant, 5-fold dilutions of alpha2 from 82 nM, protein dilution buffer 50 mM Tris pH 7.6, 1 mM EDTA, 500 mM NaCl, 10 mM 2-mercaptoethanol ….

Substance CDC25 ORF site yielded a binding signal (fold decrease in affinity vs HO(10)) of 5.

The substance PRM8 ORF site gave a binding signal (fold decrease in affinity vs HO(10)) of 5. PRM9 ORF site: the binding signal (fold decrease in affinity vs HO(10)) was found to be 10.

URB1 ORF site gave a binding signal (fold decrease in affinity vs HO(10)) of 25. YKL162C ORF site returned a binding signal (fold decrease in affinity vs HO(10)) of 10.
